The values below come from patent US20130202593A1.

Bounds are passed on as bounds.

The target of test [1] is ΔRING-ΔBOX TRIM21 (human) (UniProt P19474). As to the kind of experiment: steady-state fluorescence titration: quenching of intrinsic TRIM21 tryptophan fluorescence on titration of IgG.
Test [2] deals with recombinant full-length TRIM21 (human) (UniProt P19474). The test is described as above.
Test [3] has as its target IgG. The experiment in a line: fluorescence titration spectroscopy.
The target of test [4] is IgG. The experiment in a line: steady-state fluorescence titration (quenching of TRIM21 tryptophan fluorescence on titration of IgG).

As to IgG (antibody), the EC50 (read off the curve) (as a rule, the concentration at which the effect is half-maximal) in test [1] is 3 nM; in test [2] it was 1 nM.
Consider “recombinant full-length TRIM21 (from UniProt P19474 1-475) (receptor)”, for which the values for the Kd with IgG [3] and in the test with IgG [4] were below 1 nM and 0.6 nM, respectively.
On to “ΔRING-ΔBOX TRIM21 (from UniProt P19474 129-475) (receptor)”, for which the Kd (in general, a measure of binding affinity in units of concentration) with IgG [3] is below 1 nM; with IgG [4], 0.9 nM.
